Article PMC12905490, “Identification and functional characterization of two CXCL17 paralogs from zebrafish” (Biochemical Journal, 2026)
Each block holds one molecule with its values, some of them ahead of it.

What was measured:
[1] = molecular target: sLgBiT-Dr-GPR25 (zebrafish (Danio rerio)); assay: split reporter (BiFC, NanoBiT); NanoBiT-based competition binding: constant 6 × His-SmBiT-Dr-CXCL17-like tracer and varied competitors on living HEK293T cells expressing sLgBiT-Dr-GPR25; serum-free DMEM, 0.1% BSA, 0.01% Tween-20, room temperature ~1 h
sLgBiT-Dr-GPR25 [2] = molecular target: T1, sLgBiT-Dr-GPR25 (zebrafish (Danio rerio), UniProt A0AC58GT18 1-377); assay: split reporter (BiFC, NanoBiT); NanoBiT-based homogeneous saturation binding as before, but sLgBiT-Dr-GPR25 coexpressed with human TPST1 and TPST2 in HEK293T cells; serum-free DMEM, 0.1% BSA, 0.01% Tween-20, room temperature ~1 h; conditions: one partner purified
T1 construct: G protein-coupled receptor 25 (GPR25), zebrafish (Danio rerio); In one experiment it was coexpressed with human TPST1 and TPST2; sulfation of the N-terminal tyrosines is only called potential; The chemotaxis assays used untagged Dr-GPR25 (PB-TRE/Dr-GPR25); also called N-terminally secretory LgBiT-fused Dr-GPR25; zebrafish GPR25; source: HEK293T, transfected (PB-TRE/sLgBiT-Dr-GPR25), Dox-induced, …
T1 sequence (looked up): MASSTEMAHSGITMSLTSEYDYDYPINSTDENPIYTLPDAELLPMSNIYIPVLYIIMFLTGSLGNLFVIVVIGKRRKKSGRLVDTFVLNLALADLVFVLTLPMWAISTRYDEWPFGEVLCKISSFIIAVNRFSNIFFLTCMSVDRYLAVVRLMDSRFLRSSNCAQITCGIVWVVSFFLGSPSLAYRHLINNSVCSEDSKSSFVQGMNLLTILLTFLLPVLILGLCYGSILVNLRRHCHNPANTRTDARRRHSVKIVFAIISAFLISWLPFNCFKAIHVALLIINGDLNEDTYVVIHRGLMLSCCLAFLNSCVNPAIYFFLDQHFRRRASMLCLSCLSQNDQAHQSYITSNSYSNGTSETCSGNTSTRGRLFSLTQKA

sLgBiT-Dr-GPR25 [3] = molecular target: T1, sLgBiT-Dr-GPR25; assay: split reporter (BiFC, NanoBiT); NanoBiT-based homogeneous saturation binding: varied 6 × His-SmBiT-Dr-CXCL17-like on living HEK293T cells overexpressing sLgBiT-Dr-GPR25, without coexpression of TPST1 and TPST2; serum-free DMEM, 0.1% BSA, 0.01% Tween-20, room temperature ~1 h; non-specific binding with 1.0 μM unlabeled 6 × His-Dr-CXCL17-like; conditions: one partner purified
sLgBiT-Dr-GPR25 [4] = molecular target: T1, sLgBiT-Dr-GPR25; assay: split reporter (BiFC, NanoBiT); NanoBiT-based competition binding: constant 6 × His-SmBiT-Dr-CXCL17-like tracer and varied competitors on living HEK293T cells expressing sLgBiT-Dr-GPR25; serum-free DMEM, 0.1% BSA, 0.01% Tween-20, room temperature ~1 h; conditions: one partner purified

IC50 [1]: 380 nM
Molecule: 6 × His-Dr-CXCL17 (ligand)

Kd (sLgBiT-Dr-GPR25 [2]): 7.1 ± 0.9 nM | Kd (sLgBiT-Dr-GPR25 [3]): 7.5 nM
B1: 6 × His-SmBiT-Dr-CXCL17-like (ligand, zebrafish (Danio rerio), UniProt A0AB13AB19 26-95, looked up)
chain: QRRSMKQSAVCGCKLYPDKGLKCTKRPNPKSRDEYYEILKCICRDTQIFSKSSRKEYLKRCNKFYPSLPL
notes: Dr-CXCL17-like, zebrafish (Danio rerio, Tübingen strain), mature peptide of 70 amino acids (residues 26-95 of the 95-residue precursor; predicted signal peptide of 25 residues left out); also called tracer; SmBiT-tagged tracer; not shown: His6, N-terminal, kept; SmBiT, N-terminal, kept

IC50 (sLgBiT-Dr-GPR25 [4]): ~13 nM
B2: 6 × His-Dr-CXCL17-like (ligand, zebrafish (Danio rerio), UniProt A0AB13AB19 26-95, looked up)
chain: B1 chain
notes: Dr-CXCL17-like, zebrafish (Danio rerio, Tübingen strain), mature peptide of 70 amino acids (residues 26-95 of the 95-residue precursor; predicted signal peptide of 25 residues left out); also called zebrafish CXCL17-like; A0AB13AB19; not shown: His6, N-terminal, kept

IC50 (sLgBiT-Dr-GPR25 [4]): ~230 nM
B3: 6 × His-Hs-CXCL17 (ligand, human, UniProt Q6UXB2 22-119, looked up)
chain: SSLNPGVARGHRDRGQASRRWLQEGGQECECKDWFLRAPRRKFMTVSGLPKKQCPCDHFKGNVKKTRHQRHHRKPNKHSRACQQFLKQCQLRSFALPL
notes: C-X-C motif chemokine ligand 17 (CXCL17), human; likely the mature peptide with an N-terminal 6 × His tag, as for the zebrafish proteins (surmised); also called Recombinant human CXCL17; source: recombinant
